The source of these data is US20210300992A1 (Stanford University, published 2021).

Test [1] addresses T1, human leukemia inhibitory factor (LIF), soluble (human, UniProt P15018 23-202).
T1 construct: also called human LIF; soluble human LIF
Put plainly: KinExA, purified Fc fusion with soluble human LIF; reference LIFR-WT-Fc. Here is the method:
(§1) Binding of the purified LIF inhibitors to soluble LIF was tested using KinExA. Shown in FIG. 10 are binding results for: (1) a homodimer having a WT LIFR CBMI-Ig-like-CBMII Fc fusion as each monomer; (2) a homodimer having LIFR […] Fc as each monomer;
(§2) and (3) a homodimer having LIFR-gp130 V-E fusion Fc as each monomer. KD values calculated from KinExA software and fitted curves are shown.

Test [2] addresses T1, human leukemia inhibitory factor (LIF), …. Put plainly: KinExA, purified Fc fusion with soluble human LIF.
The target of test [3] is T2, wild-type human gp130 CBM domain displayed on the surface of yeast (human, UniProt P40189 124-324).
T2 construct: also called gp130 wild-type (WT); wild-type gp130
T2 chain: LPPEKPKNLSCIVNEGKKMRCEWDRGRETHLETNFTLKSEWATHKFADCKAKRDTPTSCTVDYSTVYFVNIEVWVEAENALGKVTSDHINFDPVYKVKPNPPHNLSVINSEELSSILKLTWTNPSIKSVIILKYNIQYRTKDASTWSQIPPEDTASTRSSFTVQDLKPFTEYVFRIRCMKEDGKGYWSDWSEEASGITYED
Put plainly: yeast-displayed receptor, no LIF added, anti-Fc detection by flow cytometry.

Test [4] concerns the target T3, wild-type human LIFR displayed on the surface of yeast (human, UniProt P42702 45-534, limits assumed).
T3 construct: also called LIFR wild-type (WT); wild-type LIFR
T3 sequence: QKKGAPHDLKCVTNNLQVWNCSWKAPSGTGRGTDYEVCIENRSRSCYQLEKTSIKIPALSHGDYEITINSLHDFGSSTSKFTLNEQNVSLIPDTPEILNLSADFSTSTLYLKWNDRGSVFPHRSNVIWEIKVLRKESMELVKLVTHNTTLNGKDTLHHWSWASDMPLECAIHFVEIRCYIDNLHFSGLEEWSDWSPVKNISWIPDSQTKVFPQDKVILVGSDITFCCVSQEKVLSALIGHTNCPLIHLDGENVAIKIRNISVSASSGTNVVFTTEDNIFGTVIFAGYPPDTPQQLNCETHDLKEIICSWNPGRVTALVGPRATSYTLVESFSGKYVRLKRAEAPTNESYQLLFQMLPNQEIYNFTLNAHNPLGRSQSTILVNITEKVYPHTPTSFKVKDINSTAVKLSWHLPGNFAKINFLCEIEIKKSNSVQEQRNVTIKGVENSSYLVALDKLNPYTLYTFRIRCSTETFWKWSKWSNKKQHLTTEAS
The description is as above.

In test [5] the target is T1, human leukemia inhibitory factor (LIF), …. Put plainly: KinExA with soluble human LIF; KD calculated by the KinExA software. As for the experimental part:
as §1

The target is the same in test [6]. As to the kind of experiment: KinExA with soluble human LIF; inhibitor titrated. Here is the method: as §1
For test [7] the target is unchanged. Put plainly: cell-based or functional assay.
The target is the same in test [8]. As to the kind of experiment: yeast surface display titration with human LIF, flow cytometry; reference yeast-displayed gp130 WT. Here is the method: (§3) Binding to human LIF was measured via fluorescent antibody detection using flow cytometry.
Results for gp130 wild-type (WT) (circles), the “8M” variant (E4K-K5R-N14D-K45E-F46L-K83R-Y95D-N100S) (squares), and the ELDME variant (mutations in FIG. 4, panel A) (triangles) are shown.
(In general: A flow cytometer gives signals particle by particle.)

Test [9] has the same target. Put plainly: yeast surface display titration with human LIF, flow cytometry. Here is the method: as §3
The target is the same in test [10]. Put plainly: yeast surface display titration with human LIF, flow cytometry; reference yeast-displayed LIFR WT. Here is the method:
as §3
Results for LIFR wild-type (WT) (circles), the “PDD” variant (L218P-N42D-N277D) (squares), and the […] variant (mutations in FIG. 4, panel A) (triangles) are shown.

For test [11] the target is unchanged. As to the kind of experiment: KinExA with soluble human LIF; KD calculated by the KinExA software. The unit is written as printed; the curve lies beside that of LIFR VPRVVAID Fc (Kd in pM). Here is the method:
as §1, §2

In the next test the target is T4, human LIF-His (human, UniProt P15018 23-202).
T4 construct: also called soluble LIF-His; not shown: His6 tag
As to the kind of experiment: competition on yeast: displayed wild-type LIFR or gp130 saturated with LIF-His, inhibitor added in excess; anti-His signal normalized to LIF alone. As for the experimental part:
FIG. 14 LIF inhibitors compete LIF away from wild-type receptors. Panel A: Schematic illustration of competitive binding assay. […] Human LIF-His is incubated at saturating concentrations. Inhibitors (LIFR-[…]-Fc depicted) are then co-incubated with LIF-bound yeast, in excess. LIF binding is detected via His6-tag on LIF. The less LIF that remains bound after inhibitor incubation, the better the inhibitor is able to compete LIF away from the WT receptor. Panel B: Results from competitive binding experiment. […] Fraction bound is the fluorescent emission detected from the LIF-His, normalized to No Inhibitor added. Competitive binding of LIFR-WT-Fc, gp130-ELDME-Fc (Eng.), LIFR-[…]-Fc (Eng.), LIFR-gp130 Fusion-Fc (Eng.), LIFR-gp130 Heterodimeric Fc (Eng.), Anti-LIF mAb L1, and Anti-LIF mAb G1 are shown.
Human LIF-His is introduced at saturating concentrations. Inhibitors (LIFR-[…]-Fc depicted) are then co-incubated with LIF-bound yeast, in excess. LIF binding is detected via His6-tag on LIF. The less LIF that remains bound after inhibitor incubation, the better the inhibitor is able to compete LIF away from the WT receptor.

B1: LIFR CBMI-Ig-like-CBMII (VPRVVAID) Fc fusion homodimer (Fc fusion)
chain: QKKGAPHDLKCVTNNLQVWNCSWKAPSGTGRGTDYEVCIENRSRSCYQLEKTSIKIPALSHGDYEITINSLHDFGSSTSKFTLNEQNVSLIPDTPEILNLSADFSTSTLYLKWNDRGSVFPHRSNVIWEIKVLRKESMELVKLVTHNTTLNGKDTLHHWSWASDMPLECAIHFVEIRCYIDNLHFSGLEEWSDWSPVKNISWIPDSQTKVFPQDKVVPVGSDITFCCVSQEKVLSALIGRTDCPLIHLDGENVAIKVRNVSASASSGTNVVFITEDDIFGTVIFAGYPPDTPQGSQLNCETHDLKEIICSWNPGRVTALVGPRATSYTLVESFSGKYVRLKRAEAPTNESYQLLFQMLPNQEIYNFTLNAHNPLGRSQSTILVNITEKVYPHTPTSFKVKDINSTAVKLSWHLPGNFAKINFLCEIEIKKSNSVQEQRNVTIKGVENSSYLVALDKLNPYTLYTFRIRCSTETFWKWSKWSNKKQHLTTEASGSGSGSDKTHTCPPCPAPELLGGPSVFLFPPKPKDTLMISRTPEVTCVVVDVSHEDPQVKFNWYVDGVQVHNAKTKPREQQYNSTYRVVSVLTVLHQNWLDGKEYKCKVSNKALPAPIEKTISKAKGQPREPQVYTLPPSREEMTKNQVSLTCLVKGFYPSDIAVEWESNGQPENNYKTTPPVLDSDGSFFLYSKLTVDKSRWQQGNVFSCSVMHEALHNHYTQKSLSLSPGK
Broadly, the Kd is the equilibrium constant for the complex coming apart. By EC50 (read off the curve) is commonly meant the concentration at which the effect is half-maximal. As to B1, in [1], the “fold improvement in affinity over LIFR-WT-Fc” value came to 43 fold. The figures for the Kd in test [2] and in [5] were 0.023 nM and 0.0231 nM, respectively. Also, the binding result in [3] and in test [4] was “no binding” each time. For the same molecule, the “EC50 (read off the curve)” value in test [6] is approximately 0.05 nM. Moreover, the “IC50, inhibition of LIF derived luciferase activity in HeLa STAT3 luciferase reporter cells” value in test [7] stood at 0.035 nM. Besides, in [7], the “fold improvement in IC50 over LIFR WT Fc, inhibition of LIF derived luciferase activity in HeLa reporter cells” value amounted to 53 fold.

B2: gp130 ELDME variant displayed on the surface of yeast (receptor)
chain: LPPEKPKNLSCIVNEGKKMRCEWDRGRETHLETNFTLKSEWATHELADCKAKRDTPTSCTVDYSTVYFVNIEVWVEAENALGKVTSDHINFDPVDKVKPNPPHNLSVINSEELSSILKLTWTNPSIKSVMILKYNIQYRTKDASTWSQIPPEDTASTRSSFTVQDLKPFTEYVFRIRCMKEDGEGYWSDWSEEASGITYED
notes: also called K45E-F46L-Y95D-I130M-K184E
Regarding B2, in test [8], the “fold higher affinity compared to wild-type (WT)” value came out at 12 fold. Moreover, the dissociation constant (Kd) in test [9] was 5 nM.

B3: LIFR VPRVVAID variant displayed on the surface of yeast (receptor)
chain: QKKGAPHDLKCVTNNLQVWNCSWKAPSGTGRGTDYEVCIENRSRSCYQLEKTSIKIPALSHGDYEITINSLHDFGSSTSKFTLNEQNVSLIPDTPEILNLSADFSTSTLYLKWNDRGSVFPHRSNVIWEIKVLRKESMELVKLVTHNTTLNGKDTLHHWSWASDMPLECAIHFVEIRCYIDNLHFSGLEEWSDWSPVKNISWIPDSQTKVFPQDKVVPVGSDITFCCVSQEKVLSALIGRTNCPLIHLDGENVAIKVRNVSASASSGTNVVFITEDDIFGTVIFAGYPPDTPQQLNCETHDLKEIICSWNPGRVTALVGPRATSYTLVESFSGKYVRLKRAEAPTNESYQLLFQMLPNQEIYNFTLNAHNPLGRSQSTILVNITEKVYPHTPTSFKVKDINSTAVKLSWHLPGNFAKINFLCEIEIKKSNSVQEQRNVTIKGVENSSYLVALDKLNPYTLYTFRIRCSTETFWKWSKWSNKKQHLTTEAS
notes: also called I217V-L218P-H240R-I257V-I206V-V262A-T2711-N277D
Turning to B3, the Kd in test [9] worked out at 0.03 nM. Moreover, the “fold higher affinity compared to wild-type (WT)” value in [10] is 32 fold.

B4: LIFR CBMI-Ig-like-CBMII (VPRVVAID)-gp130 CBM (ELDME) Fc fusion homodimer (Fc fusion)
chain: QKKGAPHDLKCVTNNLQVWNCSWKAPSGTGRGTDYEVCIENRSRSCYQLEKTSIKIPALSHGDYEITINSLHDFGSSTSKFTLNEQNVSLIPDTPEILNLSADFSTSTLYLKWNDRGSVFPHRSNVIWEIKVLRKESMELVKLVTHNTTLNGKDTLHHWSWASDMPLECAIHFVEIRCYIDNLHFSGLEEWSDWSPVKNISWIPDSQTKVFPQDKVVPVGSDITFCCVSQEKVLSALIGRTNCPLIHLDGENVAIKVRNVSASASSGTNVVFITEDDIFGTVIFAGYPPDTPQQLNCETHDLKEIICSWNPGRVTALVGPRATSYTLVESFSGKYVRLKRAEAPTNESYQLLFQMLPNQEIYNFTLNAHNPLGRSQSTILVNITEKVYPHTPTSFKVKDINSTAVKLSWHLPGNFAKINFLCEIEIKKSNSVQEQRNVTIKGVENSSYLVALDKLNPYTLYTFRIRCSTETFWKWSKWSNKKQHLTTEASGGGGSGGGGSGGGGSGGGGSGGGGSLPPEKPKNLSCIVNEGKKMRCEWDRGRETHLETNFTLKSEWATHELADCKAKRDTPTSCTVDYSTVYFVNIEVWVEAENALGKVTSDHINFDPVDKVKPNPPHNLSVINSEELSSILKLTWTNPSIKSVMILKYNIQYRTKDASTWSQIPPEDTASTRSSFTVQDLKPFTEYVFRIRCMKEDGEGYWSDWSEEASGITYEDGSGSGSDKTHTCPPCPAPELLGGPSVFLFPPKPKDTLMISRTPEVTCVVVDVSHEDPQVKFNWYVDGVQVHNAKTKPREQQYNSTYRVVSVLTVLHQNWLDGKEYKCKVSNKALPAPIEKTISKAKGQPREPQVYTLPPSREEMTKNQVSLTCLVKGFYPSDIAVEWESNGQPENNYKTTPPVLDSDGSFFLYSKLTVDKSRWQQGNVFSCSVMHEALHNHYTQKSLSLSPGK
notes: also called LIFR-gp130 Fusion-Fc; LIFR-gp130 V-E fusion Fc
B4: the Kd in test [11] was 30.8 nM. The binding result in test [3] and in [4] was “no binding” each time. Also, the “EC50 (read off the curve)” value in test [6] is approximately 0.06 nM.

B5: gp130 CBM domain (ELDME) Fc fusion homodimer (Fc fusion)
chain: LPPEKPKNLSCIVNEGKKMRCEWDRGRETHLETNFTLKSEWATHELADCKAKRDTPTSCTVDYSTVYFVNIEVWVEAENALGKVTSDHINFDPVDKVKPNPPHNLSVINSEELSSILKLTWTNPSIKSVMILKYNIQYRTKDASTWSQIPPEDTASTRSSFTVQDLKPFTEYVFRIRCMKEDGEGYWSDWSEEASGITYEDGSGSGSDKTHTCPPCPAPELLGGPSVFLFPPKPKDTLMISRTPEVTCVVVDVSHEDPQVKFNWYVDGVQVHNAKTKPREQQYNSTYRVVSVLTVLHQNWLDGKEYKCKVSNKALPAPIEKTISKAKGQPREPQVYTLPPSREEMTKNQVSLTCLVKGFYPSDIAVEWESNGQPENNYKTTPPVLDSDGSFFLYSKLTVDKSRWQQGNVFSCSVMHEALHNHYTQKSLSLSPGK
notes: also called gp130-ELDME-Fc; gp130 ELDME Fc
For the molecule B5, the binding result is given as “no binding” in test [3], “no binding” in test [4] and “binds” with human LIF-His.
